Measured values as given in paper PMC6599047, “Optimal composition and position of histidine-containing tags improves biodistribution of ^99mTc-labeled DARPin G3” (Scientific Reports, 2019).
Where a chain is given by its changes, count along the chain named.

B1: [99mTc]Tc(CO)3-G3-(HE)3 (DARPin G3 with a HEHEHE tag at the C-terminus) (designed binder)
chain: DLGKKLLEAARAGQDDEVRILMANGADVNAKDEYGLTPLYLATAHGHLEIVEVLLKNGADVNAVDAIGFTPLHLAAFIGHLEIAEVLLKHGADVNAQDKFGKTAFDISIGNGNEDLAEILQKLNGSHEHEHE
modifications: [99mTc]Tc(CO)3 on the histidine-containing tag (site-specific radiolabel)
notes: whole chain as printed (after removal of SUMO at QIGG/DLGKK); source: E. coli BL21(DE3), made as a His6-SUMO fusion, purified (HisTrap HP, cut with ULP1, HisTrap flow-through, MonoQ); not shown: (HE)3 (HEHEHE), C-terminal, kept
B2: [99mTc]Tc(CO)3-H6-G3 (DARPin G3 with a hexahistidine tag at the N-terminus) (designed binder)
chain: MRGSHHHHHHGSDLGKKLLEAARAGQDDEVRILMANGADVNAKDEYGLTPLYLATAHGHLEIVEVLLKNGADVNAVDAIGFTPLHLAAFIGHLEIAEVLLKHGADVNAQDKFGKTAFDISIGNGNEDLAEILQKLN
modifications: [99mTc]Tc(CO)3 on the histidine-containing tag (site-specific radiolabel)
notes: whole chain as printed; source: E. coli BL21(DE3), purified (HisTrap HP, MonoQ); not shown: His6, N-terminal, kept
B3: [99mTc]Tc(CO)3-(HE)3-G3 (DARPin G3 with a HEHEHE tag at the N-terminus) (designed binder)
chain: B2 chain with H6E, H8E, H10E
modifications: [99mTc]Tc(CO)3 on the histidine-containing tag (site-specific radiolabel)
notes: whole chain as printed; source: E. coli BL21(DE3), purified (HisTrap HP without imidazole in lysate and wash, MonoQ); not shown: (HE)3 (HEHEHE), N-terminal, kept
B4: [99mTc]Tc(CO)3-G3-H6 (DARPin G3 with a hexahistidine tag at the C-terminus) (designed binder)
chain: MDLGKKLLEAARAGQDDEVRILMANGADVNAKDEYGLTPLYLATAHGHLEIVEVLLKNGADVNAVDAIGFTPLHLAAFIGHLEIAEVLLKHGADVNAQDKFGKTAFDISIGNGNEDLAEILQKLNGSHHHHHH
modifications: [99mTc]Tc(CO)3 on the histidine-containing tag (site-specific radiolabel)
notes: whole chain as printed; source: E. coli BL21(DE3), purified (HisTrap HP, MonoQ); not shown: His6, C-terminal, kept

What follows are binders tested against T1, human epidermal growth factor receptor (HER2) (human (endogenous in SKOV3, BT474, …, UniProt P04626 23-1255)) (assay: radioligand binding; LigandTracer, real time, living SKOV3 cells, room temperature; 0.5 and 2 nM radiolabeled G3 variant, then medium replaced for dissociation; fitted to a one-to-two Langmuir binding model (TraceDrawer); duplicates). Settings: one partner purified.
T1 construct: HER2, endogenous on the human cancer cell lines SKOV3, BT474 (high expression) and DU145 (low expression); source: endogenous, on living SKOV3, BT474 and DU145 cells

B1 and B2 are within error of each other in “KD1 (high affinity interaction of the one-to-two fit)” value: 89 ± 11 pM for the first, 90 ± 5 pM for the second.

B3 and B4 are within error of each other in “KD1 (high affinity interaction of the one-to-two fit)” value: 96 ± 3 pM for the first, 118 ± 38 pM for the second.

Compared with B1, B2 is 1.8-fold higher in “KD2 (low affinity interaction of the one-to-two fit)” value: 1.8 ± 0.5 nM for the first, 3.3 ± 0.2 nM for the second.

B3 and B4 are within error of each other in “KD2 (low affinity interaction of the one-to-two fit)” value: 1.2 ± 0.1 nM for the first, 2.5 ± 1.5 nM for the second.
